Test results taken from the supplement of paper PMC9233669.
This sample holds only a part of the variants without activity.

Experiments:
biotinyl-Phe-oxazolone = assay: self-aminoacylation, catalytic enhancement (BFO) (fold over background); higher = more active; k-Seq, kA / k0A0; sequences stand for … in GGGAAUGGAUCCACAUCUACGAAUUC…UUCACUGCAGACUUGACGAAGCUG
Procedure, shortened: (§1)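 Catalytic enhancement equals the median kA over the uncatalyzed rate, the latter read from the low-activity peak of a bimodal Gaussian fit. Values of kA came from fitting each sequence's fraction reacted to a pseudo-first-order model, with 1000 bootstraps. Reacted RNA was captured with streptavidin and quantified by triplicate qPCR and Illumina sequencing after 90 minutes at room temperature with 2–1250 μM biotinyl-aminoacyl-oxazolone and 0.43 μM mutagenized RNA pools bearing a 21-nt variable region.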

biotinyl-Trp-oxazolone = assay: self-aminoacylation, catalytic enhancement (BWO) (fold over background); higher = more active; k-Seq, kA / k0A0; sequences stand for … in GGGAAUGGAUCCACAUCUACGAAUUC…UUCACUGCAGACUUGACGAAGCUG
Procedure, shortened: as §1

biotinyl-Ile-oxazolone = assay: self-aminoacylation, catalytic enhancement (BIO) (fold over background); higher = more active; k-Seq, kA / k0A0; sequences stand for … in GGGAAUGGAUCCACAUCUACGAAUUC…UUCACUGCAGACUUGACGAAGCUG
Procedure, shortened: as §1

biotinyl-Val-oxazolone = assay: self-aminoacylation, catalytic enhancement (BVO) (fold over background); higher = more active; k-Seq, kA / k0A0; sequences stand for … in GGGAAUGGAUCCACAUCUACGAAUUC…UUCACUGCAGACUUGACGAAGCUG
Procedure, shortened: as §1

biotinyl-Leu-oxazolone = assay: self-aminoacylation, catalytic enhancement (BLO) (fold over background); higher = more active; k-Seq, kA / k0A0; sequences stand for … in GGGAAUGGAUCCACAUCUACGAAUUC…UUCACUGCAGACUUGACGAAGCUG
Procedure, shortened: as §1

biotinyl-Met-oxazolone = assay: self-aminoacylation, catalytic enhancement (BMO) (fold over background); higher = more active; k-Seq, kA / k0A0; sequences stand for … in GGGAAUGGAUCCACAUCUACGAAUUC…UUCACUGCAGACUUGACGAAGCUG
Procedure, shortened: as §1

| Sequence | self-aminoacylation (biotinyl-Phe-oxazolone) | self-aminoacylation (biotinyl-Trp-oxazolone) | self-aminoacylation (biotinyl-Ile-oxazolone) | self-aminoacylation (biotinyl-Val-oxazolone) | self-aminoacylation (biotinyl-Leu-oxazolone) | self-aminoacylation (biotinyl-Met-oxazolone) |
| --- | --- | --- | --- | --- | --- | --- |
| CCACUCUUCAAGUAAUCGGUC [Fam1B.1 aminoacylation ribozyme variant] | 4.71 | 3.88 | 0.854 | 1.08 | 0.969 | 0.823 |
| AAGUUUGGUAAUAGUCGCCAG [Fam3.1 aminoacylation ribozyme variant] | 4.77 | 2.18 | 1.32 | 1.32 | 1.27 | 1.1 |
| AUUACCCUGUUAAUCGAGUGA [Fam2.1 aminoacylation ribozyme variant] | 54.5 | 13.4 | 4.91 | 5.36 | 9.68 | 9.91 |
| CUACUGCAAACAAUCCGUCUG [Fam1A.1 aminoacylation ribozyme variant] | 1.27 | 0.876 | 0.953 | 0.801 | 0.817 | 0.806 |
| AAGUUUGCUAAUAGUCGCGCG [Fam3.1 aminoacylation ribozyme variant] | 20.9 | 5.74 | 3.47 | 2.94 | 4.77 | 3.95 |
| CCACACUGCAAGCAAUCGCUC [Fam1B.1 aminoacylation ribozyme variant] | 16 | 1.78 | 2.73 | 2.35 | 2.4 | 2.1 |
| AUUACCCUGAUCAUCGAGUAA [Fam2.1 aminoacylation ribozyme variant] | 1.09 | 0.877 | 1.25 | 1.32 | 1.02 | 1.33 |
| AUGCACCUAGGUCAUCGUGUG [Fam2.2 aminoacylation ribozyme variant] | 4.56 | 0.926 | 1.04 | 1.04 | 0.934 | 1.18 |
| AUAUUUGCUAAUAGUCGCAAG [Fam3.1 aminoacylation ribozyme variant] | 2.04 | 1.75 | 1.57 | 1.49 | 1.37 | 1.35 |
| CCACACUUCUAGCAAUCGGAC [Fam1B.1 aminoacylation ribozyme variant] | 0.585 | 0.61 | 0.941 | 0.612 | 0.979 | 0.665 |
| AUUAACCUGGACAUCGAGUGA [Fam2.1 aminoacylation ribozyme variant] | 32.9 | 8.58 | 2.99 | 2.89 | 6.88 | 6.63 |
| AUUCACCUAGGUCAGCGGGGG [Fam2.2 aminoacylation ribozyme variant] | 27.6 | 5.24 | 4.35 | 3.43 | 5.24 | 5.1 |
| CCACACUUCCAUCAAUCGGUC [Fam1B.1 aminoacylation ribozyme variant] | 0.715 | 0.586 | 0.683 | 0.732 | 0.593 | 0.561 |
| AAGUUUGCUAAUACUCGCCAG [Fam3.1 aminoacylation ribozyme variant] | 0.993 | 0.773 | 0.916 | 0.836 | 0.655 | 0.629 |
| CUACGUCAAACAAACGGUCUG [Fam1A.1 aminoacylation ribozyme variant] | 0.89 | 0.904 | 1.06 | 1.03 | 1.16 | 1.08 |
| AUUCACCUGGCUCAUCGGGUG [Fam2.2 aminoacylation ribozyme variant] | 18.3 | 2.44 | 2.18 | 3.81 | 3.2 | 1.79 |
| AUUACCCUGGUCAACGGGUGA [Fam2.1 aminoacylation ribozyme variant] | 46.6 | 10.8 | 4.83 | 4.61 | 9.68 | 9.43 |
| UGUCACCUAGGUCAUCGGGUG [Fam2.2 aminoacylation ribozyme variant] | 23.9 | 5.31 | 3.84 | 3.6 | 3.64 | 4.27 |
| AUUACCCUGGUCAUUGAGCGA [Fam2.1 aminoacylation ribozyme variant] | 4.43 | 1.66 | 1.45 | 1.41 | 1.44 | 1.16 |
| AUUCACCCAGAUCAUCGGGUG [Fam2.2 aminoacylation ribozyme variant] | 7.26 | 1.84 | 1.85 | 2.26 | 2.43 | 1.82 |
| AUUCAACUUGGUCAUCGGGUG [Fam2.2 aminoacylation ribozyme variant] | 34.1 | 4.45 | 3.85 | 3.29 | 6.72 | 5.25 |
| AUUCACCGAGGUCACCGGGUG [Fam2.2 aminoacylation ribozyme variant] | 74.9 | 8.69 | 6.91 | 5.88 | 10.8 | 9.61 |
| CCACGGUUCAAGCAAUCGGUC [Fam1B.1 aminoacylation ribozyme variant] | 2.64 | 2.21 | 1.08 | 1.22 | 1.07 | 1.02 |
| CCACACUUCUAGCAAUCGGGC [Fam1B.1 aminoacylation ribozyme variant] | 4.87 | 1.7 | 2.09 | 1.64 | 1.21 | 1.08 |
| AUUCAGCUAGGUCAUCGGGCG [Fam2.2 aminoacylation ribozyme variant] | 17.5 | 3.83 | 2.48 | 2.79 | 3.92 | 3.2 |
| AUGACCCUGGUCAUCGAGUUA [Fam2.1 aminoacylation ribozyme variant] | 9.13 | 3.71 | 2.81 | 2.44 | 5.29 | 6.25 |
